Molecular target: ZFHD1 (Zif268 zinc fingers-Oct1 homeodomain chimera) fused to 3xFKBP (UniProt P08046+P14859)
Assay: cell_activity
Settings: SEAP reporter in HT1080 cells; rapamycin-dependent, peak at 5 nM; no SEAP without either fusion

Chain of ZFHD1 (Zif268 zinc fingers-Oct1 homeodomain chimera) fused to 3xFKBP (P08046 whole entry, change not shown, chain 1 of 2, the tested form may be a part): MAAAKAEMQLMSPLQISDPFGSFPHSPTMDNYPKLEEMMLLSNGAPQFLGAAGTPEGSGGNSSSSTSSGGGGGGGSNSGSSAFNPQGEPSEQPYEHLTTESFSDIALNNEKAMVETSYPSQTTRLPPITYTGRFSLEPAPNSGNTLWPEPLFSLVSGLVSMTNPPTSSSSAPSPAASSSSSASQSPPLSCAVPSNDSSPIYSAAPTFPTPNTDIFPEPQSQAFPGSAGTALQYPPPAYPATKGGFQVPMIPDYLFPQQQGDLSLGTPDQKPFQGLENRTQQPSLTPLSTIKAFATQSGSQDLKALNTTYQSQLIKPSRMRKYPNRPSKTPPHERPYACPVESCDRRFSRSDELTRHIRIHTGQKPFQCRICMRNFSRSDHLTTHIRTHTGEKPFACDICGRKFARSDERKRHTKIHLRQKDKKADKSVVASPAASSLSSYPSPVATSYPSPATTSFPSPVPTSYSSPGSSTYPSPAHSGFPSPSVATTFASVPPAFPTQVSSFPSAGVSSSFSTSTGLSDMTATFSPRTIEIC
Chain of ZFHD1 (Zif268 zinc fingers-Oct1 homeodomain chimera) fused to 3xFKBP (P14859 whole entry, change not shown, chain 2 of 2, the tested form may be a part): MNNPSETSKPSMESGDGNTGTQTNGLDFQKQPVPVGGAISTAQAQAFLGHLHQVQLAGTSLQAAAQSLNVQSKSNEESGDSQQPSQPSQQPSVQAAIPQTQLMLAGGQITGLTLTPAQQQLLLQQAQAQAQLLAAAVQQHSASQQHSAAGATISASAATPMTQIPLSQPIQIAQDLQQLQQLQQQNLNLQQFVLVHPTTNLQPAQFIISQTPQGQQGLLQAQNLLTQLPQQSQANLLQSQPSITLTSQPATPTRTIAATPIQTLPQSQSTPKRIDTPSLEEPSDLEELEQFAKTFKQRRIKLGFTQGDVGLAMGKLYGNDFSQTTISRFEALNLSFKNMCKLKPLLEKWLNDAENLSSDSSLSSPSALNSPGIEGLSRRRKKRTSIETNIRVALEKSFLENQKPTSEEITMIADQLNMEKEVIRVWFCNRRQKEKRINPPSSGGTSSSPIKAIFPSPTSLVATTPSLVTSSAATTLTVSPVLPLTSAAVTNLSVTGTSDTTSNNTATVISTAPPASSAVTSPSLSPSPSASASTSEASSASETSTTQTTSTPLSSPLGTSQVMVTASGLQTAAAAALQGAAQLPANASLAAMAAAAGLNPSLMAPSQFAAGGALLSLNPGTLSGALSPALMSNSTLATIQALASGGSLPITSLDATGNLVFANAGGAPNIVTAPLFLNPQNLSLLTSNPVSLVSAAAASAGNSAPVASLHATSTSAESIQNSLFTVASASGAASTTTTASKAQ

GCTAGCTAATGATGGGCGCTCGAGTAATGATGGGCGGTCGACTAATGATGGGCGCTCGAGTAATGATGGGCGTCTAGCTAATGATGGGCGCTCGAGTAATGATGGGCGGTCGACTAATGATGGGCGCTCGAGTAATGATGGGCGTCTAGCTAATGATGGGCGCTCGAGTAATGATGGGCGGTCGACTAATGATGGGCGCTCGAGTAATGATGGGCGTCTAGA (double strand) [12x ZFHD1 binding sites (pZHWTx12)]
activity: > 1000 fold

From patent US6306649
